According to patent US6468532 (dated 2002):

Biological target: recombinant human IL-8, (ser-IL-8)72 (human, UniProt P10145 28-99)
Experiment: competition radioimmunoassay (unlabeled IL-8/125I-IL-8)

IC50: 0.059 nM
B1: full length 6G4V11N35A IgG1 (antibody, V domains shown)
VH: EVQLVQSGGGLVQPGGSLRLSCAASGYSFSSHYMHWVRQAPGKGLEWVGYIDPSNGETTYNQKFKGRFTLSRDNSKNTAYLQMNSLRAEDTAVYYCARGDYRYNGDWFFDVWGQGTLVTVSS
VL: DIQMTQSPSSLSASVGDRVTITCRSSQSLVHGIGATYLHWYQQKPGKAPKLLIYKVSNRFSGVPSRFSGSGSGTDFTLTISSLQPEDFATYYCSQSTHVPLTFGQGTKVEIKR
